{"source": "paper PMC3460914", "about": "“The Polyoma Virus Large T Binding Protein p150 Is a Transcriptional Repressor of c-MYC”", "binders": {"B1": {"name": "Oct1 binding site (dsDNA)", "DNA 1": "TGTCGAATGCAAATCACTAGAA", "DNA 2": "TTCTAGTGATTTGCATTCGACA"}, "B2": {"name": "p150 consensus sequence (CS) (dsDNA)", "DNA 1": "GGATCACTGGGTGGGAATCACGCT", "DNA 2": "AGCGTGATTCCCACCCAGTGATCC"}, "B3": {"name": "NHE III1 of c-MYC promoter (dsDNA)", "DNA 1": "TGGGGAGGGTGGGGAGGGTGGGGAAGG", "DNA 2": "CCTTCCCCACCCTCCCCACCCTCCCCA"}}, "key": {"GST-p150 [1]": {"target": "T1, GST-p150 (human, UniProt F5H433 1-1005)", "T1 sequence": "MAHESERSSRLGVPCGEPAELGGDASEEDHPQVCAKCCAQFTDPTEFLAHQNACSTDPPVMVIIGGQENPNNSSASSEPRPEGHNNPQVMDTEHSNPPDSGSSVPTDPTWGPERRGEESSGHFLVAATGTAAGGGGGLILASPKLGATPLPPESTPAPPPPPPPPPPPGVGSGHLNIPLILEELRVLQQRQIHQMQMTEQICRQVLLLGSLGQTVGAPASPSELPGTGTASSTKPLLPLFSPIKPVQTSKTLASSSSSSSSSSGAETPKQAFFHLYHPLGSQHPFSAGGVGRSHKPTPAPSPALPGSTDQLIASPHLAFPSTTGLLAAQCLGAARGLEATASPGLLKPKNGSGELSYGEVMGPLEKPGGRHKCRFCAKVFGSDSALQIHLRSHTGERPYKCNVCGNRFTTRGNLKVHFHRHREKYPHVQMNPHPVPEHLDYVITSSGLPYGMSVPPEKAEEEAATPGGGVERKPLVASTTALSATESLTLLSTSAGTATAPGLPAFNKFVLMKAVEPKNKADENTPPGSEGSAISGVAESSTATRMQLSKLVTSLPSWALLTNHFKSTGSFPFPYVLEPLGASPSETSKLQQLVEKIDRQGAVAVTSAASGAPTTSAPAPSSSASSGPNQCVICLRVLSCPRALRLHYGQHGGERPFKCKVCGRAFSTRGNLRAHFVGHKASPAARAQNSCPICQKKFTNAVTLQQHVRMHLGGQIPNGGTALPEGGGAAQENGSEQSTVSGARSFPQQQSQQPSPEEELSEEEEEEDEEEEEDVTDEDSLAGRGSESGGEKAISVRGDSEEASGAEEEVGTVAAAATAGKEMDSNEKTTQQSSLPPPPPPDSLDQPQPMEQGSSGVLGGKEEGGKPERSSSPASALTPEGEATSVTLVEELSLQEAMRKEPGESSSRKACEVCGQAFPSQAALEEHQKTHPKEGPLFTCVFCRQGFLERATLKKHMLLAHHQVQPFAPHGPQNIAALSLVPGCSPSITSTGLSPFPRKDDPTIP", "experiment": "competition; 50x unlabeled Oct1 vs labeled NHE III1; 10 mM HEPES pH 7.5, 25 nM KCl (so in the source), 2.5 mM MgCl (so in the source), 5 µl ZnCl, 3% glycerol, 2 µg BSA, 200 ng poly(dA-dT); temperature not stated", "conditions": "protein: recombinant; tags: GST; blunt"}, "GST-p150 [2]": {"target": "T1, GST-p150", "experiment": "EMSA; 100 ng protein, 200 ng poly(dA-dT); 10 mM HEPES pH 7.5, 25 nM KCl (so in the source), 2.5 mM MgCl (so in the source), 5 µl ZnCl, 3% glycerol, 2 µg BSA, 200 ng poly(dA-dT); temperature not stated", "conditions": "protein: recombinant; tags: GST; label: 32P (probe); blunt"}}}
{"binder": "B1", "values": [{"measurement": "binding result", "setting": "GST-p150 [1]", "value": "no binding"}]}
{"binder": "B2", "values": [{"measurement": "binding result", "setting": "GST-p150 [2]", "value": "binds"}]}
{"binder": "B3", "values": [{"measurement": "binding result", "setting": "GST-p150 [2]", "value": "binds"}]}
